Results: paper PMC2904831 (Journal of molecular biology, 2010)
Read-outs that look alike come from different tables or passages of the source. Where no end group is shown, it is not given here. [ ]: non-standard residue; d: D form. pS = N[C@@H](COP(=O)(O)O)C(=O)O

Tests used:
[1] = system: pMART-1-specific CD4+ T cell line D7; test: Recognition of titrated peptides on HLA-DR1+ APC by CD4+ T cell line D7; type: cell-based, human; details: T cell line D7, peptide 25 μM, ELISA; Fig. 4b
[2] = system: pMART-1-specific CD4+ T cell clone D7-F6; test: Recognition of peptide-pulsed HLA-DR1+ EBV-B cells by CD4+ T cell clone D7-F6; type: cell-based, human; details: ELISA
[3] = target: HLA-DR1 (HLA-DRβ1*0101) purified from the EBV-transformed homozygous B lymphoblastoid cell line LG2 (human); test: radioligand binding
[4] = target: HLA-DR1 (HLA-DRβ1*0101) purified from the EBV-transformed homozygous B lymphoblastoid cell line LG2 (human); test: radioligand binding; remark: listed apart in the source

In the case of PKYVKQNTLKLAT [HA307-319], the “GM-CSF secretion from T cells + APC + peptide” value (“GM-CSF secretion” for short) [1] is reported as 0.7 ng/mL, the “GM-CSF secretion” value ([2]; clone D7-F6, HLA-DR1+ 2048-EBV cells pre-pulsed with peptide 25 μM, overnight, Fig. 3) is reported as < 15 pg/mL and the “GM-CSF secretion” value ([2]; clone D7-F6, peptide 15 μM, Fig. 4a) is reported as < 20 pg/mL.

In the case of “pMART-1_(98–109) phosphopeptide (from UniProt Q16655 98-109)”, the fold decrease in other [3] is reported as < 2 fold.

With “pMART-1_(100–116) phosphopeptide (from UniProt Q16655 100-116)” the IC50 [3] was 0.327 µM.

APPAYEKL[pS]AEQ [pMART-1_(100–111) phosphopeptide] gave an IC50 [4] of 0.459 µM.

With APPAYEKL[pS]AEQSPPP [pMART-1_(100–115) phosphopeptide] the IC50 [4] was 0.142 µM.

APPAYEKL[pS]AEQSPP [pMART-1_(100–114) phosphopeptide] showed an IC50 [4] of 0.102 µM.
